Results taken from article PMC6331805.

Molecular target: T1, NtcA (Synechocystis sp. PCC 6803) (UniProt P33779)
T1 sequence: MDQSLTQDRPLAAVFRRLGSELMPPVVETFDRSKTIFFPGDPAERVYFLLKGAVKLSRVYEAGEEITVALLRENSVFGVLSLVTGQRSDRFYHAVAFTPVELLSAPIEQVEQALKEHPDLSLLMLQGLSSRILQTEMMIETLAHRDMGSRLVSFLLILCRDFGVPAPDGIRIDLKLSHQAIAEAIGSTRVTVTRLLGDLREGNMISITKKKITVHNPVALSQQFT
Test: EMSA
Conditions: Roche DIG Gel Shift kit buffer (composition and pH not stated), 2 ng DIG-labeled DNA, 15 min at room temperature, native 8% PAGE; 5 mM MgCl2 in 2-oxoglutarate …

| Sequence | binding |
| --- | --- |
| ACTCTGACGTACCCATTGACGGGGTAACTTACTCAAGCTAAAAGGTAAAGAATTGTAAACTAAGTTAATTATCCCAGGAAATCCCATGAG (double strand) [scpE promoter fragment 90 bp] | binds |
| TTTGAGCCTAACATTATCCTCCCGTTGCCTTTTTCACCACAGACTTGCCATGGGCGCAATACTCTGTTACATTTATTTACATAGACAACCCTCCCAGCTCGTAATTACAT (double strand) [scpB promoter fragment 110 bp] | binds |
